# B1: rhTNFm1: Recombinant human TNF-α mutant 1 expressed in E. coli; SEQ ID NO: 3 with N-terminal methionine (FIG. 1, 2) (protein)
# chain: MRKRKPVAHVVANPQAEGQLQWLNRRANALLANGVELRDNQLVVPSEGLYLIYSQVLFKGQGCPSTHVLLTHTISRIAVSYQTKVNLLSAIKSPCQRETPEGAEAKPWYEPIYLGGVFQLEKGDRLSAEINRPDYLDFAESGQVYFGIIAQ
# modifications: rhTNFm1 with Met
# Tests used:
# [1] = in vivo
# Description: Patients with the following malignancy: malignant lymphoma, lung cancer, melanoma, breast cancer, liver cancer, kidney cancer, colon cancer, pleural effusion and ascites were treated with a monotherapy of the recombinant protein rhTNFm1 described above.
# Patients were treated with rhTNFm1 at 600,000-900,000 unit/m^2 (about 1-50 μg/m^2 depending on the specific bioactivity of a particular lot) per day, 5 times a week (day 3-7) via i.v. injection. Patients rested on day 1 and 2. The treatment cycle was 3-4 weeks.
# Kidney Cancer = assay: Clinical monotherapy of rhTNFm1, kidney cancer; format: in vivo, human; conditions: 3 patients
# Excerpt: (§1) Patients were selected based on the following criteria: i) measurable, objective tumor; ii) Karnofsky performance status (KPS)≧60; iii) age 18-75; iv) major organs in basically normal condition; v) no chemotherapy, radiotherapy and biologic therapy within the last month; vi) predicted ≧3 mon. survival; and vii) with patient's informed consent signed.
# (§2) Patients were excluded based on the following criteria: i) with history of allergic reactions to TNF or its derivatives; ii) pregnant or lactating women; iii) major organs with obvious damages or malfunction; iv) in ≧38° C. fever; v) with obvious tendency to haemorrhage; vi) with history of hypo- or hypertension; vii) with serious albuminemia; and viii) with strong tendency of disobedience or resistance.
# (§3) Patients were removed from the evaluation if any of the following conditions apply: i) treatment was not completed according to the protocol; ii) incomplete records; and iii) treatment using cancer therapies not in the protocol. However, patients who withdrew due to adverse reactions to the therapy were still included in the evaluation.
# (§4) The results of the treatment of tumors were evaluated based the following criteria: i) complete response (CR)—complete disappearance of observable pathological changes for at least 4 weeks; ii) partial response (PR)—reduction by ≧50% in tumor size measured by the product of the maximum circular and vertical dimensions for at least 4 weeks; iii) minimum response (MR)—reduction by >25% but <50% in tumor size measured by the product of the maximum circular and vertical dimensions for at least 4 weeks; iv) stabilized (SD)—reduction by ≦25% but without increase by >25% in tumor size measured by the product of the maximum circular and vertical dimensions for at least 4 weeks; and progression (PD): increase by >25% in tumor size in one or more sites.
# (§5) Patients rested on day 1 and 2. The treatment cycle was 3-4 weeks.
# Hodgkin's disease = assay: Clinical monotherapy of rhTNFm1, Hodgkin's disease; format: in vivo, human; conditions: for Efficacy CR / Efficacy MR / Efficacy PD / Efficacy PR / Efficacy SD: patient count
# Excerpt: as §1, §2, §3, §4, §5
# Table II summaries results of the treatment of patients with malignant lymphoma, classified according to Hodgkin's disease and non-Hodgkin's lymphoma. Within each of category of lymphoma, patients were further classified into two groups: chemo-naïve and chemo-refractory. The chemo-naïve patients were patients who had never been treated with any anti-cancer agent previously whereas chemo-refractory patients were ones who failed treatment with one or more anti-cancer agent.
# Colon Cancer = assay: Clinical monotherapy of rhTNFm1, colon cancer; format: in vivo, human; conditions: 7 patients
# Excerpt: as §1, §2, §3, §4, §5
# [2] = system: malignant pleural effusion or ascites; assay: Clinical monotherapy of rhTNFm1, malignant pleural effusion or ascites (Total); format: in vivo, human; conditions: 169 patients
# Excerpt: as §1, §2, §3
# (§6) The results of the treatment of malignant pleural effusion (or hydrothorax) and ascites were evaluated based on a modified Millar standard (Millar J W, Hunfer A M, Home N W. (1980) “Inerapleural immunotherapy with CP”, in Recurrent Malignant Pleural Effusions. Thorax 35:856): i) complete response (CR)—complete disappearance of pleural effusion or ascites for at least 1 month; ii) partial response (PR)—reduction by at least 1 grade for at least 1 month; iii) minimum response (MR)—reduction in the levels of pleural effusion or ascites within the same grade for at least 1 month; iv) stabilized (SD)—levels of pleural effusion or ascites maintained within the same grade for at least 1 month; and progressed (PD): increase in the levels of pleural effusion or ascites compared with those before the treatment.
# as §5
# (§7) It is noted that Table III includes the patients who withdrew due to […], including 1 with malignant pleural effusion and 1 with malignant ascites. For patients with malignant ascites, rhTNFm1 was reconstituted in 30-50 ml normal saline and administered intraperitoneally (i.p.) at 2,000,000-3,000,000 units each time, 1-2 times a week, with 2-3 weeks as one treatment cycle. Optionally, rhTNFm1 was administered to the patients by alternating between i.p. injection and i.v. injection (at 600,000-900,000 unit/m^2 per day continuing for 28 days as one treatment cycle). On the day when rhTNFm1 was administered via i.p. injection, administration of rhTNFm1 via i.v. injection was stopped.
# malignant ascites = assay: Clinical monotherapy of rhTNFm1, malignant ascites; format: in vivo, human; conditions: 28 patients, monotherapy i.p.
# Excerpt: as §1, §2, §3, §6, §7
# [3] = Chemo-naïve Grade I & II, 0 patients
# [4] = Chemo-naïve Grade III & IV, 0 patients
molecule,measurement,setting,value
B1,adverse effects compared to wild type TNF-α,[1],much fewer and weaker adverse effects
same,duration of chill,[1],≤ 30 min
same,duration of chills,[1],no more than half an hour
same,duration of fever,[1],no more than half an hour
same,fever grade during the treatment,[1],Grade I
same,highest body temperature during the treatment,[1],37.2 °C
same,patients with 3rd degree fever,[1],two
same,patients with chills,[1],23%
same,patients with fever below the 2nd degree,[1],About 38%
same,patients with mild chills,[1],11%
same,patients with slight chills,[1],12%
same,time of occurrence of chills after the administration,[1],≤ 30 min
same,time of occurrence of fever post administration,[1],1 to 2 h
same,adverse reactions during the treatment,[1]; iv,slight asthenia
same,Response Rate (%) CR,Kidney Cancer,0.00%
same,Response Rate (%) CR + PR,Kidney Cancer,0.00%
same,Response Rate (%) PR,Kidney Cancer,0.00%
same,Efficacy CR,Kidney Cancer; patient count,0
same,Efficacy MR,Kidney Cancer; patient count,1
same,Efficacy PD,Kidney Cancer; patient count,1
same,Efficacy PR,Kidney Cancer; patient count,0
same,Efficacy SD,Kidney Cancer; patient count,1
same,Response Rate (%) CR,Hodgkin's disease; [3],0%
same,Response Rate (%) CR + PR,Hodgkin's disease; [3],0%
same,Response Rate (%) PR,Hodgkin's disease; [3],0%
same,Response Rate (%) CR,Hodgkin's disease; [4],0%
same,Response Rate (%) CR + PR,Hodgkin's disease; [4],0%
same,Response Rate (%) PR,Hodgkin's disease; [4],0%
same,Response Rate (%) CR,"Hodgkin's disease; Chemo-naïve Total, 0 patients",0%
same,Response Rate (%) CR + PR,"Hodgkin's disease; Chemo-naïve Total, 0 patients",0%
same,Response Rate (%) PR,"Hodgkin's disease; Chemo-naïve Total, 0 patients",0%
same,Response Rate (%) CR,"Hodgkin's disease; Chemo-refractory, 6 patients",0%
same,Response Rate (%) CR + PR,"Hodgkin's disease; Chemo-refractory, 6 patients",0%
same,Response Rate (%) PR,"Hodgkin's disease; Chemo-refractory, 6 patients",0%
same,Efficacy CR,Hodgkin's disease; [3],0
same,Efficacy MR,Hodgkin's disease; [3],0
same,Efficacy PD,Hodgkin's disease; [3],0
same,Efficacy PR,Hodgkin's disease; [3],0
same,Efficacy SD,Hodgkin's disease; [3],0
same,Efficacy CR,Hodgkin's disease; [4],0
same,Efficacy MR,Hodgkin's disease; [4],0
same,Efficacy PD,Hodgkin's disease; [4],0
same,Efficacy PR,Hodgkin's disease; [4],0
same,Efficacy SD,Hodgkin's disease; [4],0
same,Efficacy CR,"Hodgkin's disease; Chemo-naïve Total, 0 patients",0
same,Efficacy MR,"Hodgkin's disease; Chemo-naïve Total, 0 patients",0
same,Efficacy PD,"Hodgkin's disease; Chemo-naïve Total, 0 patients",0
same,Efficacy PR,"Hodgkin's disease; Chemo-naïve Total, 0 patients",0
same,Efficacy SD,"Hodgkin's disease; Chemo-naïve Total, 0 patients",0
same,Efficacy CR,"Hodgkin's disease; Chemo-refractory, 6 patients",0
same,Efficacy MR,"Hodgkin's disease; Chemo-refractory, 6 patients",0
same,Efficacy PD,"Hodgkin's disease; Chemo-refractory, 6 patients",1
same,Efficacy PR,"Hodgkin's disease; Chemo-refractory, 6 patients",0
same,Efficacy SD,"Hodgkin's disease; Chemo-refractory, 6 patients",5
same,Response Rate (%) CR,Colon Cancer,0.00%
same,Response Rate (%) CR + PR,Colon Cancer,0.00%
same,Response Rate (%) PR,Colon Cancer,0.00%
same,Efficacy CR,Colon Cancer; patient count,0
same,Efficacy MR,Colon Cancer; patient count,0
same,Efficacy PD,Colon Cancer; patient count,4
same,Efficacy PR,Colon Cancer; patient count,0
same,Efficacy SD,Colon Cancer; patient count,3
same,Response Rate (%) CR,[2],8.88%
same,Response Rate (%) CR + PR,[2],69.23%
same,Response Rate (%) PR,[2],60.36%
same,Efficacy CR,[2]; patient count,15
same,Efficacy MR,[2]; patient count,12
same,Efficacy PD,[2]; patient count,2
same,Efficacy PR,[2]; patient count,102
same,Efficacy SD,[2]; patient count,38
same,Response Rate (%) CR,malignant ascites,3.57%
same,Response Rate (%) CR + PR,malignant ascites,42.86%
same,Response Rate (%) PR,malignant ascites,39.29%
same,Efficacy CR,malignant ascites; patient count,1
same,Efficacy MR,malignant ascites; patient count,3
same,Efficacy PD,malignant ascites; patient count,1
same,Efficacy PR,malignant ascites; patient count,11
same,Efficacy SD,malignant ascites; patient count,12
